Assay results from article PMC9352680, “A comprehensive thermodynamic model for RNA binding by the Saccharomyces cerevisiae Pumilio protein PUF4”.

T1: PUF4 RNA-binding domain (Saccharomyces cerevisiae, UniProt P25339 537-888)
T1 sequence: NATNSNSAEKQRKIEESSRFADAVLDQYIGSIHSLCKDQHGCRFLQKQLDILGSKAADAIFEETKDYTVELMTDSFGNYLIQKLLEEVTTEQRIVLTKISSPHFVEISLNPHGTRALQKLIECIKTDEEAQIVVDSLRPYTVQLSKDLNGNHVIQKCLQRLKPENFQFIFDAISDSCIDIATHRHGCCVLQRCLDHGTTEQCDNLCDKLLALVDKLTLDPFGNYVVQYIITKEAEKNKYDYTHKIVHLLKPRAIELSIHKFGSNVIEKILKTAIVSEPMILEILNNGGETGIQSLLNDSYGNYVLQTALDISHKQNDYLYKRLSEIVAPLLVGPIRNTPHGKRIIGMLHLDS


target: T1, PUF4 RNA-binding domain; test: Mg; RNA-MaP; 20 mM Na-HEPES pH 7.4, 30 mM KOAc, 0.75 mM MgCl2, 0.1% Tween-20, 5% glycerol, 0.1 mg/mL BSA, 2 mM DTT; 25 C; 0.0125-409.6 nM protein; conditions: tags: N-His6-TEV cleaved; C-SNAP kept, Cy3B-labelled; label: tethered on chip by stalled RNA polymerase

Binder | Kd
Ic_S4_P5E.1_K5.1_C5.1_H5.1_A5.1_[T5A]_[T6A]_[A7C]_F5.1_[T8C]_[A10C]_T5.1 (ssRNA) RNA: UUUGACAACUGAUCGUUCUUUCUUGUAAACCUCUUCUUUCUCGAUCAGUUGUCUUU | 233 nM
Ic_S4_P5E.1_K5.1_C5.1_H5.1_A5.1_[T5C]_[A7T]_F5.1_[T8C]_T5.1 (ssRNA) RNA: UUUGACAACUGAUCGUUCUUUCUUGUACUUCUAUUCUUUCUCGAUCAGUUGUCUUU | 2.44 nM
Ic_S4_P5E.1_K5.1_C5.1_H5.1_A5.1_[T5C]_[T6A]_[A7T]_F5.1_[T8G]_[A10G]_T5.1 (ssRNA) RNA: UUUGACAACUGAUCGUUCUUUCUUGUACAUGUGUUCUUUCUCGAUCAGUUGUCUUU | 24 nM
Ic_S4_P5E.1_K5.1_C5.1_H5.1_A5.1_[T5C]_[T6G]_[A7T]_F5.1_[T8C]_[T9C]_[A10C]_T5.1 (ssRNA) RNA: UUUGACAACUGAUCGUUCUUUCUUGUACGUCCCUUCUUUCUCGAUCAGUUGUCUUU | 114 nM
Ic_S4_P5E.1_K5.1_C5.1_H5.1_A5.1_[T5A]_F5.1_[A10G]_T5.1 (ssRNA) RNA: UUUGACAACUGAUCGUUCUUUCUUGUAAUAUUGUUCUUUCUCGAUCAGUUGUCUUU | 24.3 nM
Ic_S4_P5E.1_K5.1_C5.1_H5.1_A5.1_[A7G]_F5.1_[T8G]_T5.1 (ssRNA) RNA: UUUGACAACUGAUCGUUCUUUCUUGUAUUGGUAUUCUUUCUCGAUCAGUUGUCUUU | 58.8 nM
Ic_S4_P5E.1_K5.1_C5.1_H5.1_A5.1_[T5A]_[T6C]_[A7G]_F5.1_[T9A]_[A10G]_T5.1 (ssRNA) RNA: UUUGACAACUGAUCGUUCUUUCUUGUAACGUAGUUCUUUCUCGAUCAGUUGUCUUU | 114 nM
Ic_S4_P5E.1_K5.1_C5.1_H5.1_A5.1_[T6A]_[A7G]_F5.1_[T9A]_[A10C]_T5.1 (ssRNA) RNA: UUUGACAACUGAUCGUUCUUUCUUGUAUAGUACUUCUUUCUCGAUCAGUUGUCUUU | 3.94 nM
Ic_S4_P5E.1_K5.1_C5.1_H5.1_A5.1_[A7T]_F5.1_[T8C]_[T9C]_T5.1 (ssRNA) RNA: UUUGACAACUGAUCGUUCUUUCUUGUAUUUCCAUUCUUUCUCGAUCAGUUGUCUUU | 120 nM
Ic_S4_P5E.1_K5.1_C5.1_H5.1_A5.1_[T5G]_[A7C]_F5.1_[T8A]_[T9C]_[A10T]_T5.1 (ssRNA) RNA: UUUGACAACUGAUCGUUCUUUCUUGUAGUCACUUUCUUUCUCGAUCAGUUGUCUUU | 1040 nM
Ic_S4_P5E.1_K5.1_C5.1_H5.1_A5.1_[T5C]_[T6G]_[A7T]_F5.1_[T8G]_[T9C]_[A10C]_T5.1 (ssRNA) RNA: UUUGACAACUGAUCGUUCUUUCUUGUACGUGCCUUCUUUCUCGAUCAGUUGUCUUU | 125 nM
Ic_S4_P5E.1_K5.1_C5.1_H5.1_A5.1_[T5C]_[T6C]_[A7G]_F5.1_[T8A]_[T9C]_[A10C]_T5.1 (ssRNA) RNA: UUUGACAACUGAUCGUUCUUUCUUGUACCGACCUUCUUUCUCGAUCAGUUGUCUUU | 1020 nM
Ic_S4_P5E.1_K5.1_C5.1_H5.1_A5.1_[T5G]_[T6C]_[A7G]_F5.1_[T8C]_[T9G]_[A10T]_T5.1 (ssRNA) RNA: UUUGACAACUGAUCGUUCUUUCUUGUAGCGCGUUUCUUUCUCGAUCAGUUGUCUUU | 1620 nM
Ic_S4_P5E.1_K5.1_C5.1_H5.1_A5.1_[T5C]_F5.1_[T8C]_[T9G]_[A10C]_T5.1 (ssRNA) RNA: UUUGACAACUGAUCGUUCUUUCUUGUACUACGCUUCUUUCUCGAUCAGUUGUCUUU | 499 nM
Ic_S4_P5E.1_K5.1_C5.1_H5.1_A5.1_[T5A]_[T6C]_[A7C]_F5.1_[T9A]_[A10T]_T5.1 (ssRNA) RNA: UUUGACAACUGAUCGUUCUUUCUUGUAACCUAUUUCUUUCUCGAUCAGUUGUCUUU | 5.91 nM
Ic_S4_P5E.1_K5.1_C5.1_H5.1_A5.1_[T5C]_[T6A]_[A7C]_F5.1_[T8C]_[A10G]_T5.1 (ssRNA) RNA: UUUGACAACUGAUCGUUCUUUCUUGUACACCUGUUCUUUCUCGAUCAGUUGUCUUU | 81 nM
Ic_S4_P5E.1_K5.1_C5.1_H5.1_A5.1_[T6C]_[A7G]_F5.1_[T8C]_[T9C]_[A10G]_T5.1 (ssRNA) RNA: UUUGACAACUGAUCGUUCUUUCUUGUAUCGCCGUUCUUUCUCGAUCAGUUGUCUUU | 1730 nM
Ic_S4_P5E.1_K5.1_C5.1_H5.1_A5.1_[T5A]_[T6A]_[A7C]_F5.1_[T9G]_[A10G]_T5.1 (ssRNA) RNA: UUUGACAACUGAUCGUUCUUUCUUGUAAACUGGUUCUUUCUCGAUCAGUUGUCUUU | 280 nM
Ic_S4_P5E.1_K5.1_C5.1_H5.1_A5.1_[T5C]_[T6G]_[A7T]_F5.1_[T8C]_[T9G]_[A10T]_T5.1 (ssRNA) RNA: UUUGACAACUGAUCGUUCUUUCUUGUACGUCGUUUCUUUCUCGAUCAGUUGUCUUU | 167 nM
Ic_S4_P5E.1_K5.1_C5.1_H5.1_A5.1_[T5G]_[T6C]_[A7T]_F5.1_[A10T]_T5.1 (ssRNA) RNA: UUUGACAACUGAUCGUUCUUUCUUGUAGCUUUUUUCUUUCUCGAUCAGUUGUCUUU | 34.7 nM
Ic_S4_P5E.1_K5.1_C5.1_H5.1_A5.1_[T5C]_[A7C]_F5.1_[T9C]_[A10G]_T5.1 (ssRNA) RNA: UUUGACAACUGAUCGUUCUUUCUUGUACUCUCGUUCUUUCUCGAUCAGUUGUCUUU | 120 nM
Ic_S4_P5E.1_K5.1_C5.1_H5.1_A5.1_[T5A]_[T6C]_[A7T]_F5.1_[T8C]_[T9A]_T5.1 (ssRNA) RNA: UUUGACAACUGAUCGUUCUUUCUUGUAACUCAAUUCUUUCUCGAUCAGUUGUCUUU | 857 nM
Ic_S4_P5E.1_K5.1_C5.1_H5.1_A5.1_[T5G]_[T6C]_[A7T]_F5.1_[T8C]_[T9C]_[A10C]_T5.1 (ssRNA) RNA: UUUGACAACUGAUCGUUCUUUCUUGUAGCUCCCUUCUUUCUCGAUCAGUUGUCUUU | 658 nM
Ic_S4_P5E.1_K5.1_C5.1_H5.1_A5.1_[T5A]_[T6A]_[A7T]_F5.1_[T9C]_[A10T]_T5.1 (ssRNA) RNA: UUUGACAACUGAUCGUUCUUUCUUGUAAAUUCUUUCUUUCUCGAUCAGUUGUCUUU | 28.2 nM
Ic_S4_P5E.1_K5.1_C5.1_H5.1_A5.1_[T5A]_[T6C]_[A7T]_F5.1_[T8A]_[T9G]_[A10T]_T5.1 (ssRNA) RNA: UUUGACAACUGAUCGUUCUUUCUUGUAACUAGUUUCUUUCUCGAUCAGUUGUCUUU | 586 nM
